According to US20160084820A1, “METHODS OF TREATING OR PREVENTING PERIODONTITIS AND DISEASES ASSOCIATED WITH PERIODONTITIS” (priority 2010, published 2016):
Like-named read-outs stand apart in the source and are kept apart here.

Columns and labels:
macrophages [1] = test: Intracellular Ca2+ mobilization (Indo-1 AM), macrophages; assay type: cell-based, mouse; details: 50 nM
neutrophils = test: Intracellular Ca2+ mobilization (Indo-1 AM), neutrophils; assay type: cell-based, mouse
[2] = tested on: phagocytosed P. gingivalis in mouse peritoneal macrophages; assay type: cell-based, P. gingivalis ATCC 33277; details: for promoting intracellular survival, C5a vs C5a^desArg: 24 h
Description: The viability of phagocytosed P. gingivalis was monitored by an antibiotic protection-based intracellular survival assay, as previously described (Wang et al., 2007, J. Immunol., 179:2349-58). Briefly, mouse peritoneal macrophages were allowed to phagocytose P. gingivalis (MOI=10:1; 5×10^6 bacteria and 5×10^5 cells) for […] at 37° C. This was followed by washing to remove extracellular nonadherent bacteria and 1-hour treatment with antibiotics (300 μg/ml gentamicin and 200 μg/ml metronidazole) to eliminate residual or extracellular adherent bacteria. The macrophages were subsequently cultured overnight (for a total of 24 hours) or for 48 hours Immediately after, the macrophages were washed and lysed in sterile distilled water, and viable counts of internalized P. gingivalis were determined by plating serial dilutions of macrophage lysates on blood agar plates subjected to anaerobic culture.
The viability of phagocytosed P. gingivalis was monitored by an antibiotic protection-based intracellular survival assay, as previously described (Wang et al., 2007, J. Immunol., 179:2349-58)). Briefly, mouse peritoneal macrophages were allowed to phagocytose P. gingivalis (at a MOI=10:1; 5×10^6 bacteria and 5×10^5 macrophages) for 30 min at 37° C. This was followed by washing to remove extracellular nonadherent bacteria and 1-hour treatment with antibiotics (300 μg/ml gentamicin and 200 μg/ml metronidazole) to eliminate residual or extracellular adherent bacteria. The macrophages were subsequently cultured overnight for a total of 24 hours Immediately after, the macrophages were washed and lysed in sterile distilled water and viable counts of internalized P. gingivalis were determined by plating serial dilutions of macrophage lysates on blood agar plates subjected to anaerobic culture.

intracellular cAMP = test: cAMP enzyme immunoassay in P. gingivalis-stimulated macrophages; assay type: cell-based, mouse; details: for elevating cAMP, C5a vs C5a^desArg: 1 h
macrophages [3] = tested on: macrophages
Description: Thioglycollate-elicited macrophages were isolated from the peritoneal cavity of wild-type or mice deficient in TLR2, TLR4, C3aR, or C5aR (The Jackson Laboratory) (Zhang et al., 2007, Blood, 110:228-36; Gajishengallis et al., 2006, Cell. Microbiol., 8:1557-70), in compliance with established federal guidelines and institutional policies. The macrophages were cultured at 37° C. and 5% CO2 in RPMI 1640 (InVitrogen) supplemented with 10% heat-inactivated FBS, 2 mM L-glutamine, 100 units/ml penicillin G, 100 μg/ml streptomycin, and 0.05 mM 2-ME.
Thioglycollate-elicited macrophages were isolated from the peritoneal cavity of wild-type or mice deficient in TLR2 or C5aR (Hajishengallis et al., 2006, Cell. Microbiol., 8:1557-70; Zhang et al., 2007, Blood, 110:228-36) in compliance with established institutional policies and federal guidelines. Both BALB/c and C57BL/6 C5aR-deficient mice were used (with their respective wild-type controls): The BALB/c mice were obtained from The Jackson Laboratory; and the C57BL/6 C5aR-deficient mice were originally provided by Dr. Craig Gerard (Harvard Medical School) and are now housed at The Jackson Laboratory. The TLR2-deficient mice were originally C57BL/6 (The Jackson Laboratory) and were backcrossed for nine generations onto a BALB/c genetic background before their use in these studies. […]

nitric oxide production = test: NO2− (nitric oxide) production, Griess reaction-based assay, macrophages; assay type: cell-based, mouse; details: for inhibiting nitric oxide, C5a vs C5a^desArg: 24 h
IL-6 production = test: IL-6 ELISA in P. gingivalis-stimulated macrophages; assay type: cell-based, mouse; details: C5a 50 nM, 5 or 24 hours
Description: Mouse peritoneal macrophages were incubated for 5 or 24 hours at 37° C. with P. gingivalis (Pg; MOI=10:1) in the presence or absence of C5a (50 nM), and culture supernatants were assayed for IL-6 by ELISA.

human neutrophils = test: In vitro killing of Pg and oxidative burst by human neutrophils; assay type: cell-based; details: presence of C5a
Description: (§1) To directly implicate neutrophils in this evasion mechanism, in vitro experiments were performed. It was shown that the ability of mouse or human neutrophils (purified from peripheral blood5 collected under IRB approval) to kill Pg was inhibited in the presence of C5a in a C5aR-dependent manner, whereas their oxidative burst response was enhanced.

[4] = tested on: negative regulators of TLR signaling; test: Expression of negative regulators of TLR signaling, quantitative real-time PCR; assay type: cell-based, mouse; details: C5a 50 nM, 4 hours
Description: Gene expression in resting or activated mouse macrophages was quantified using quantitative real-time PCR. Briefly, RNA was extracted from cell lysates using the PerfectPure RNA cell kit (5 Prime, Fisher) and quantified by spectrometry at 260 and 280 nm. The RNA was reverse-transcribed using the High-Capacity cDNA Archive kit (Applied Biosystems) and quantitative real-time PCR with cDNA was performed using the ABI 7500 Fast System, according to the manufacturer's protocol (Applied Biosystems). TaqMan probes, sense primers, and antisense primers for expression of a house-keeping gene (GAPDH) or iNOS (or the genes shown in FIG. 7) were purchased from Applied Biosystems.
Supplemental experiments also examined the relative expression of negative regulators of TLR signaling in P. gingivalis-stimulated macrophages in the absence or presence of C5a. Mouse macrophages were stimulated with P. gingivalis (Pg; at a MOI=10:1) or medium control, in the presence or absence of 50 nM of C5a, and incubated for 4 hours. Quantitative real-time PCR (ABI 7500 Fast System; Applied Biosystems) was used to determine mRNA expression levels for the indicated molecules (normalized against GAPDH mRNA levels), which are shown in FIG. 7.

[5] = tested on: mouse peritoneal macrophages; test: P. gingivalis phagocytosis and receptor expression by flow cytometry; assay type: cell-based
Description: First, experiments were performed to determine the effect of C5a (50 nM) or C3a (200 nM) on P. gingivalis phagocytosis by unprimed or IFN-γ-primed mouse peritoneal macrophages (FIG. 6A). The phagocytic index was calculated following a 30-min incubation using the following formula: % positive cells for fluorescently labeled P. gingivalis×MFI/100 (extracellular fluorescence was quenched prior to flow cytometry). Mouse macrophages were incubated at 37° C. for 30 min (B) or 24 hours (C) with medium, C5a (50 nM) only, or P. gingivalis (MOI=10:1) with or without C5a (50 nM). The expression levels of the indicated receptors, which coordinately mediate P. gingivalis uptake, were determined by flow cytometry after cell staining with appropriate fluorescently labeled antibodies (FIGS. 6B and 6C). The 30-min time point was examined to determine possible induced surface expression of preformed receptors from intracellular pools. […] Mouse-specific mAbs to TLR2 (clone 6C2), TLR1 (TR23), CD14 (Sa2-8), CD11b (M1/70), and CD18 (M18/2) were obtained from e-Bioscience.

mouse neutrophils = test: In vitro killing of Pg and oxidative burst by mouse neutrophils; assay type: cell-based; details: presence of C5a
Description: as §1

IL-12p70 production = test: IL-12p70 induction in IFN-gamma-primed macrophages, ELISA; assay type: cell-based, mouse
Description: Induction of nitric oxide production was assessed by measuring the amount of NO2− (stable metabolite of nitric oxide) in stimulated culture supernatants using a Griess reaction-based assay kit (R&D Systems), as previously performed (Hajishengallis et al., 2008, PNAS USA, 105:13532-7). Levels of cAMP in activated cell extracts were measured using a cAMP enzyme immunoassay kit (Cayman Chemical) (Liang et al., 2007, J. Immunol., 178:4811-9). C5a-induced intracellular calcium mobilization was monitored in cells (4×10^6) loaded with 1 μM Indo 1-AM in the presence of 1 μM pluronic acid, as previously described (Ali et al., 1993, J. Biol. Chem., 268:24247-54). Calcium traces were recorded in a Perkin-Elmer fluorescence spectrometer (Model 650-19) with an excitation wavelength of 355 nm and an emission wavelength of 405 nm. Induction of cytokine production in activated cell culture supernatants or in the peritoneal fluid of infected mice was determined by ELISA using kits from eBioscience or Cell Sciences. C5a levels were measured by sandwich ELISA, employing a pair of capture and biotinylated anti-05a mAbs (BD Pharmingen), according to the manufacturer's protocol.
Whether C5a inhibits P. gingivalis-induced IL-12p70 in peritoneal macrophages was investigated. Since macrophages are generally poor producers of IL-12p70 in vitro unless primed with IFN-gamma, macrophages used in these experiments were primed with IFN-gamma (0.1 μg/ml). […] The host TLR response against P. gingivalis is predominantly mediated by TLR2, both in vitro and in vivo. Therefore, whether C5a-mediated inhibition of P. gingivalis-induced IL-12p70 could involve a C5aR-TLR2 crosstalk additionally was examined.

[6] = tested on: GSK3β Ser9-phosphorylation; test: GSK3β Ser9 phosphorylation ELISA in macrophages; assay type: cell-based, mouse; details: C5a 50 nM without Pg
Description: PKA activity in lysates of activated cells was determined using the ProFluor™ PKA assay, according to the instructions of the manufacturer (Promega) (Hajishengallis et al., 2008, PNAS USA, 105:13532-7). Phosphorylation of GSK313 on Ser9 and total GSK3β were monitored using FACE™ GSK3β ELISA kits (Active Motif).

B1: C5a: mouse C5a anaphylatoxin, purchased from Cell Sciences or R&D Systems (protein)
chain: NLHLLRQKIEEQAAKYKHSVPKKCCYDGARVNFYETCEERVARVTIGPLCIRAFNECCTIANKIRKESPHKPVQLGR
intracellular Ca^2+ mobilization (macrophages [1]): comparable intracellular Ca^2+ mobilization | intracellular Ca^2+ mobilization (neutrophils): only C5a was active | promoting intracellular survival, C5a vs C5a^desArg ([2]; 10 nM): stronger effects than C5a^desArg | intracellular survival of P. gingivalis in macrophages (viable counts of internalized bacteria) ([2]; Pg MOI=10:1, C5a 50 nM or C3a 200 nM, 24 or 48 hours post-infection): significantly promoted | Pg CFU with C5a in the absence of inhibitors ([2]; macrophages with Pg and C5a, 24 hours postinfection, FIG. 2D dashed line): 13.7±2.7 [×10^4] CFU | elevating cAMP, C5a vs C5a^desArg (intracellular cAMP; 10 nM): stronger effects than C5a^desArg | elevation of intracellular cAMP, C5a + P. gingivalis relative to P. gingivalis alone (intracellular cAMP; C5a 50 nM, Pg MOI=10:1): > 3 fold | cAMP difference AMD+C5a+Pg vs. AMD+Pg (intracellular cAMP; CXCR4 blockade by AMD3100 1 μg/ml): > 6 fold | cAMP response to C5a by itself (intracellular cAMP; macrophages without P. gingivalis): failed to induce a cAMP response | cell viability compared to medium-only treatments (macrophages [3]): None of the experimental treatments, including treatments with C5a up to 100 nM, affected cell viability | inhibiting nitric oxide, C5a vs C5a^desArg (nitric oxide production; 10 nM): stronger effects than C5a^desArg | production of nitric oxide in P. gingivalis-stimulated macrophages (nitric oxide production; C5a 50 nM, unprimed or IFN-gamma-primed, 24 hours): significantly inhibited | IL-6 production in P. gingivalis-stimulated macrophages (IL-6 production): up-regulation of IL-6 production | ability of neutrophils to kill Pg (human neutrophils): inhibited | oxidative burst response (human neutrophils): enhanced | expression of negative regulators of TLR signaling with P. gingivalis and C5a [4]: no synergistic or additive effects | P. gingivalis phagocytosis ([5]; C5a 50 nM or C3a 200 nM, 30-min incubation): not significantly affected | expression of macrophage receptors CD14, TLR2, CD11b/CD18 ([5]; C5a 50 nM, 30 min or 24 hours): essentially unaffected | ability of neutrophils to kill Pg (mouse neutrophils): inhibited | oxidative burst response (mouse neutrophils): enhanced | inhibition of P. gingivalis-induced IL-12p70 (IL-12p70 production; 10 nM): already effective | P. gingivalis-induced IL-12p70 production (IL-12p70 production; C5a 50 nM, 24 h): significantly inhibited | LPS-induced IL-12p70 production (IL-12p70 production; C5a 50 nM, E. coli LPS 0.1 μg/ml, 24 h): significantly inhibited | Ser9-phosphorylation of GSK3β by C5a itself [6]: only slightly increased

B2: C5a^desArg: desarginated form of mouse C5a (protein)
chain: NLHLLRQKIEEQAAKYKHSVPKKCCYDGARVNFYETCEERVARVTIGPLCIRAFNECCTIANKIRKESPHKPVQLG
intracellular Ca^2+ mobilization (macrophages [1]): comparable intracellular Ca^2+ mobilization | intracellular Ca^2+ mobilization (neutrophils): only C5a was active | promoting intracellular survival, C5a vs C5a^desArg ([2]; 50 nM): no significant differences | elevating cAMP, C5a vs C5a^desArg (intracellular cAMP; 50 nM): no significant differences | inhibiting nitric oxide, C5a vs C5a^desArg (nitric oxide production; 50 nM): no significant differences | inhibition of P. gingivalis-induced IL-12p70 (IL-12p70 production; 10 nM): not | inhibition of P. gingivalis-induced IL-12p70 (IL-12p70 production; 50 nM): significant (p<0.05) inhibition
